We go through 3 molecules from PMC8836581, “A Microplate-Based Approach to Map Interactions between TDP-43 and α-Synuclein” (Journal of Clinical Medicine, 2022).

The target in test [1] is full length recombinant alpha synuclein (UniProt P37840 1-140). Description: ELISA; synthetic peptides (5 µg/mL in PBS, 10 mM EDTA) coupled through cysteine to maleimide-activated microplate wells, blocked with L-cysteine; 0.1 µg/mL recombinant protein added 1 h at 37 °C; biotinylated detection antibody, streptavidin-HRP, TMB, absorbance at 450 nm. The settings on record: both partners purified. (In general: ELISA stands for enzyme-linked immunosorbent assay.)

The target of test [2] is T1, full length recombinant TDP-43 (UniProt Q13148 1-414).
T1 construct: Called monomeric in the conventional ELISA; also called full-length TDP-43; source: recombinant
T1 sequence (Q13148 whole entry): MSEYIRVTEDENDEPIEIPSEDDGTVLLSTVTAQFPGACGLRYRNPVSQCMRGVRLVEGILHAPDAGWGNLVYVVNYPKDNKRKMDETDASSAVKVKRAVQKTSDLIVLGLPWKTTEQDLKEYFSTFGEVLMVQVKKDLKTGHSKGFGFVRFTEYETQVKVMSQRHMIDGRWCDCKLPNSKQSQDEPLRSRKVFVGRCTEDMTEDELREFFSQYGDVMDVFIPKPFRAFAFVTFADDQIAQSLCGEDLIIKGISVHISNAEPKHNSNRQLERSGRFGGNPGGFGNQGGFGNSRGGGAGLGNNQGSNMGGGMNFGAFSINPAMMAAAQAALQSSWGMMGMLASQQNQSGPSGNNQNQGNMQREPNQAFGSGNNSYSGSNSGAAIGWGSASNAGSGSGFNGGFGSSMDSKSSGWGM
Described as above. The settings on record: both partners purified.

B1: TDP-43 peptide 17 (aa 310–329) (peptide)
peptide: GMNFGAFSINPAMMAAAQAA
notes: That this stretch has no internal cysteine is my surmise; source: synthetic peptide (Lugen Sci Co., Ltd.)
B1: the binding result in test [1] is “binds”.

B2: α-synuclein peptide, amino acids 61–76 (peptide, UniProt P37840 61-76, looked up)
peptide: EQVTNVGGAVVTGVTA
notes: alpha synuclein residues 61-76, start of the non-amyloid β component (NAC); also called first 16 residues of the NAC; first 15 residues of the NAC region; source: synthetic peptide (Lugen Sci Co., Ltd.)
In the case of B2, the binding result in test [2] is listed as “binds”.

B3: TDP-43 overlapping peptide aa 305–323 (peptide)
peptide: SNMGGGMNFGAFSINPAMM
notes: source: synthetic peptide (Lugen Sci Co., Ltd.)
With B3, the binding result in test [1] is listed as “binds”.
